Our source for the GFP positive cells after transduction of activated lymphocytes (GFP vector) values is patent publication US20230167158A1.

The target in this assay is human CD3 on activated lymphocytes (human). The experiment in a line: cell-based or functional assay.

In the case of OKT3-CD8a-VSVG, the GFP positive cells after transduction of activated lymphocytes (GFP vector) is > 50%.
OKT3-VSVG had a GFP positive cells after transduction of activated lymphocytes (GFP vector) of 7%.
